Measured values as given in the nanobody polyreactivity screen of Harvey et al. (2022).

Test: yeast display, Sf9 membrane polyspecificity reagent, FACS + sequencing; frameworks hold sequencing errors
Summary of the method: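 Synthetic nanobody libraries on Saccharomyces cerevisiae BJ5465 were galactose-induced for 36–48 hours, stained 1 hour at 4 °C with 10% biotinylated, detergent-solubilized Sf9 membrane reagent and enriched on streptavidin microbeads. FACS then separated cells into low and high (top ~1%) gates by anti-HA (expression) and streptavidin (reagent binding) fluorescence. Genes were colony-PCR amplified, MiSeq 2 × 250 sequenced and CDR-length filtered. A clone's polyreactivity label is that of its gate of origin.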

Sequence	polyreactivity (PSR sort gate)
QVQLVESGGGLVQAGGILRLSCAASGRTFNQNAMGWYRQAPGKERELVAAITSRGGSTFYAASVKGRFTISRDNAKNTVYLQMNSLKPEDTAVDYCAAPRKQLEVGPGYYWGQGTQVTVSS	high polyreactivity
QVQLVESWGGLVQAGGSLRLSCAASGIIFVSNAMGWYRQATGKERELVATINWSDDSTYYADSVKGRFTISRDNAKNTVYLQMNSLKPEDTAVYYCAADDYAVDYSYYYNDEYDYWGQGTQVTVSS	low polyreactivity
QVQLVESGGGLVQAGGRLRLSCAASGSIFPANAMGGSRQAPGKERELVAGISERGSSTYYADSVKGRFTISRDNAKNTVYLQMNSLKPEDTAVYYCAADDVGRYWSSTHNWARGDYWGQGTQVTVSS	low polyreactivity
QVQLVESGGGLVQAGGSLRLSCAASGNIFGYYVMGWYRQAPGKERELVAAITWSAGTTNYADSVKGRFTISRDNAKNTVYLQMNSLKPEDTAVYYCAVTWWYQDYDLTWYLYDYWGQGTQVTVSS	low polyreactivity
QVQLVESGGGLVQAGGSLRLSCASSGLIFSIYAMGWYRQAPGKERELVAAIRWSGGSTYYADSVKGRFTISRDNAKNTVYLQMNSLKPEDTADYYCNADITVYVRIYQYNYWGQGTQVTVSS	low polyreactivity
QVQLVESGGGLVQAGGSLRLSCAASGGIFSGNDMGWYRQAPGKERELVATITYSGGTTYYADSVKGRFTISRDNAKNTVYLQMNSLKPEDTAVYYCAADEYGPHTFSPEYDSWGQGTQVTVSS	low polyreactivity
QVQLVESGGGLVQAGGSLRLSCAASGSIFASNAMGWYRQAPGKEREFVAAIRYSGGITYYADSVKGRFTISRDNAKNTVYLQMNSLKPEDTAVYSCAAYGWGIRWYSRFDYWGQGTPVTVSS	high polyreactivity
QVQLVESGGGLVQAGGILRLSCASYGSTFALYAMGWYRPAPGKERELVATITGSGGITYYADSVKGRFTISRDNAKNTVYLQMNSLKPVDTAVYYCAADPYTLYWYYWYGTSGFDYWGQGTQVTVSS	low polyreactivity
QVQLVETGGGLVQAGGSLRLSCAASGLIFYSYTMGWYRQAPGKERELVAVISRSGTSTYYADSVKGRFTISRDNAKNTVYLQMNSLKPEDTAVYYCAARAYVSHYGVSNFGYYYWGQGTQVTVSS	high polyreactivity
QVQLVESGGGLVQAGGSLRLSCAASGRTFRIYAMGWYRQAPGKERELVAAITWGGGSTYYADSVKGRFTISRDNAKNTVYLQMNSLKPEDTAVYYCARVGWSWPRREKYNYWGQGTQVTVSS	high polyreactivity
QVQLVESGGGLVQAGGSLRLSCAASGRIFGRYAMGWYRQAPGKDRELVAAITYSGGSTYYADSVKGRFTISRDNAKNTVYFQMNSLKPEDTALYYCNAVAYRSRGPHFNYWGQGTQVTVST	high polyreactivity
QVQLVESGGGLGQAGGSLRLSCAASGRIFRGYAMGWYRQAPGTDRELVATISAIGGSTYADSVKGRFTIARDNAKNTVYLQMNSLKPEDTAVYYCNKVHFRPRYFLRSDYWGQGTQGTVSS	high polyreactivity
QVQLVESGGGLVQAGGSLRLSCAASGRTLGRNAMGWYRHAPGKERELVARISYSGGRTYYADSVKGRFTISRDNAKNTVYLQMNSLKPEDTAVYYCATLGIVHQYDYWGQGTQVTVSS	low polyreactivity
QVQLVESGGGLVQEGGSLRLSCAASGLIVGQNAMGWYRQAPGKDRELVAAISQRGGTYYADSVKGRFTISRDNAKNTVYLQMNSLKPEDTAVLYCAARVGLQPGRYYLRYDYWGQGTQVTVSS	low polyreactivity
QVQLVESGGGLVQAGGSLRLSCAASGSIFKYYAMGWYRQAPGKERELVAAITWSGGRTNYADSVKGRFTISRDNAKNTVYLQMNSLKPEDTAVYYCNKAYPGLERWYRGLYYWGQGTQVTVSS	high polyreactivity
QVQLVESGGGLVQAGGSLRLSCAASGGIFSPNAMGWYRQAPGKERELVAAISSNGGSTNYADSVKGRFTISRDNAKNTVYLQMNSLKPEDTAVFYCAGLQLRRSYRRPFYWGQGTQVTVSS	low polyreactivity
QVQLVESGGGLVQAGGSLRLSCAASGITFTVNSMGWYRQAPAKERELVAAISNDGSTYYADSVKGRFTISRDNAKNSVYLQMNRLKTEDTAVYYCAADTWDVFGPYGYDYWGQGTQVTVSS	low polyreactivity
QVQLVESGGGLVQAGGSLRLSCAASGYIFQYNAMGWYRQAPGKERELVAAISRGGRTNYADSVKGRFTISRDNAKNTVYLQMNSLNPEDTAVYFCAAKRPWGYYPWSTQTGDYWGQGTQVTVSS	high polyreactivity
QVQLVESGGGLVQAGGSLRLSCAASGRTFYFYAMGWYRQAPGKERELVASISWSGGRTYYADSVKGRFTISRDNAKNTVYLQMNSLKPEVTSVYYSAAALWTGYSWGQATQVTVSS	low polyreactivity
QVQLVESGGGLVQAGASLRLSCAASGRTFGRYTMGWYRQAPGKEREFVARINWNGGGTYYADSVKGRFTISRDNAKNTVYLQMNSLKPEDTAVYYCNARKRGARFILGYDYWGQGTQVTVSS	low polyreactivity
QVQLVESGGGLVQAGGSLRLSCAASALTFFYYAMGWYRQAPGKERELVAAISWSGGRTYYADSVKGRFTISRDNAKNTVYLQMNSLKPEDTAVYYCSADYITAHSSYSTYGYWGQGTQVTVSS	low polyreactivity
QVQLVESGGGLDQAGGSLRLSCAASGSIFVTNVMGGYRQAPGKERELVAAISSSGTRTYADSVKGRFTISRDNAKNTVYLQMNSLKTEDTAVYYCAKDYRVWVAATIAHDYWGQGTQVTVSS	low polyreactivity

Sequence	polyreactivity (PSR sort gate)
QVQLVESGGGLVQAGGSLRLSCAASGLTFIYYAMGWYRQAPGKEWELVAAISVSGGSTYYADSVKGRFTISRDNAKNTVYLQMNSLKPEDTAVYYCAADWFVHKPRYHSTFDFWGQGTQVTVSS	low polyreactivity
QVQIVESGGGLVQAGGSLRLSCAASGYIFIVYTMGWYRQAPGKERELVAAISSGGITDYADSVKGRFTLSRDNAKNTLYIQMTRLKPEDTAVYYWGQGTQVTVSS	low polyreactivity
QVQLLESGGGLVQAGGSLRLSCAASGIIFGYYAMGWYRQAPGKERELVAAITWSGGSTYYADSVKGRFTISRDNAKNTVYLQMNSLKPEDTAVYYCNADDDGRVSSTIVEYWVQGTQVTVSS	low polyreactivity
QVQLEESGGGLVQAGGSLRLSCAASGSIFVRNAMGWYRQAPGKERELVASISRRGGSTYYADSVKGRFTISRDNAKNTVYLQMISLKPEDTAVYYCAARNQIVPYGTYNYWGQGTQVTVSS	high polyreactivity
QVQLVESGGGLVQAGGSLRLSCAASGLIFRYYVMGWYRQAPGKERDFVASISYSGGRTYYADSVKGRFTISRDYAKNTVYLQMNRLKPEDTAVYYCAGGYYYHRYSYPGDYWGQGTQVTVSS	high polyreactivity
QVQLVESGGGLVQAGGSLRLSCAASGSIFPWYTMGWYRQAPGKEREFVAAISWSGGSTYYADSVKGRFTISRDNAKNTDYLQMNSLKPEETAVYYCAASRRPWYRAVTWNAGDYWGQGTQVTVSS	high polyreactivity
QVQLQESGGGLVQAGGSLRLSCAASGSISSRDAMGWYRQAPGKEREFVATIASGTTTYYADSVKGSFTISRDNAENTVYLQTNSLKPEDTAVYYCAAPTIQIYPFYYWGQGTQVTVSS	high polyreactivity
QVHLVESGGRLVQAGGSLRLSCAASGFIFQWYAMGWYRQAPGKERELVAAINSSGSTNYADSVKGRFTISRDNAKNTVYLQMNSLKPEDTAVYYCAAHWRYGRKFDYWGQGTQVTVSS	high polyreactivity
QVQLVESGGGLVQAGGSLRLSCAASGSTFPYYAMGWYRQAPGKERELVAAISSSGGSTYYADSVKGRFTISRDNANNTVYLQMNSLKPEDTAVYYCATSSLYRYWHRYDYWGQGTQVTVSS	high polyreactivity
QVQLVESGGGLVQAGGSLRLSCAASGSTISVNAMGWYRQAPGKERELVAAISDRGGSTYYADSVKGRFTISRDNAKNTVYLQMNSLKPEDTAVYYCAALFLRVTYFRLGLYSYEYWGQGTQVTVSS	low polyreactivity
QVQLVESGGGLVQAGGSLRLSCAASGRTFPSYAMGWYRQAPGKERELVAGIRWGAGRTYYADSVKGRFTISRDNAKNTVYLQMNSLKPEVTAVYYCAADPWSGSDYWGQGTQVTVSS	low polyreactivity
QVQLVESGGGLVQAGGSLRLSCAASGGTFYHYAMGWYRQAPGKERELVAAISWGGGSTYYADSVKGRFTISRDNAKNTVYLQMNSLKPEHTAVYYCAARRGFRFRDYYWGQGTQVTVSS	high polyreactivity
QVQLVESGVGLVQAGGTLRLSCAASGSIFDPYAMGWYRQAPGKERELVAAITYSVGGTTYYADSVKGRFTISRDNAKNTVYLQMNSLKPEDTAVYYCAAEWWGNPFDYWGQGTQVTVST	high polyreactivity
QVQLVESGGGLVQAGGSLRISCAASGFIFRRYAMGWYRQAPGKERELVAAIRTNSGSTYYADSVKGRFTISRDNAKNTVYLQMNSLKPEDTAVYYCATGQVYRTVSWLYNYWGQGTQVTVSS	high polyreactivity
QVQLVESGGGLVQAGGSLRLSCAASGSIFLVNALGWYRQAPGKERELVAAISWSGGSTYYAESVKGRFTISRDNAKNTVYLQMKSLKPEDTAVYYCAADWFAANYYVNTVSALDYWGLGTQVTVSS	low polyreactivity
QVHLVESGGGLVQAGGSLRLSCAASGSTSYVYAMGWYRKAPGKERELVAAISGSGGRTYYADSVKGRFTISRDNAKNTVYLQMNSLKPEDTAVYYCNALPRPSYPFDYWGQGTQVTVSS	high polyreactivity
QVQLVESGGGLVQAGGSLRLSCAASGRIFDGYAMGWYRQAPGTERELVAAITDSGGSTYYADSVKGRFTISRDNAKNTVYLQMNSLKPEDTAVYYCAAEEIDYTDVTSGYEYWGQGTQVTVSS	high polyreactivity
QVQLVESGGGLVQAGGSLRLSCAASGSIFDAYALGWYRQAPGKERELVADITFSAGRTYYADSVKGRFTITRDNAKNTVYLQMNSLKPEDTAVYYCAADSIVGDGYWSYYWGQGTQVTVSS	low polyreactivity
QVQLVESGGGLVQAGGSLRLSCAASGIIFQLYAMGWYRQAPGKERELVASITLSGTTTYYADSVKGRVTISRDNAKNTVYLQMNSLKPEDTAVYYCAKEYYYWGQGTQVTVSS	low polyreactivity
QVQLVESGGGLVQAGGSLRLSCAASGFTFYYYAMGWSRQAPGKERELVAAISTRDGNTYYADSVKGRFTISRDNAKNTVYLQRNSLKPEDTAVYYCAADYFRYYPYDYWGQGTQVTVSS	low polyreactivity
QVQLVESGGGLVQAGGSLRLSCAASGFTFSMYGMGWYRKAPGKERELVAAIRSGGSTNYADSVKGRFTISRDNAKNTVYLQMNSLKPEDTAVYYCAADVIPDGVKKPRMYYWGQGTQVTVSS	low polyreactivity
